T1: CoV-OC43 Spike ectodomain (OC43-CoV, UniProt P36334 14-1263)
T1 chain: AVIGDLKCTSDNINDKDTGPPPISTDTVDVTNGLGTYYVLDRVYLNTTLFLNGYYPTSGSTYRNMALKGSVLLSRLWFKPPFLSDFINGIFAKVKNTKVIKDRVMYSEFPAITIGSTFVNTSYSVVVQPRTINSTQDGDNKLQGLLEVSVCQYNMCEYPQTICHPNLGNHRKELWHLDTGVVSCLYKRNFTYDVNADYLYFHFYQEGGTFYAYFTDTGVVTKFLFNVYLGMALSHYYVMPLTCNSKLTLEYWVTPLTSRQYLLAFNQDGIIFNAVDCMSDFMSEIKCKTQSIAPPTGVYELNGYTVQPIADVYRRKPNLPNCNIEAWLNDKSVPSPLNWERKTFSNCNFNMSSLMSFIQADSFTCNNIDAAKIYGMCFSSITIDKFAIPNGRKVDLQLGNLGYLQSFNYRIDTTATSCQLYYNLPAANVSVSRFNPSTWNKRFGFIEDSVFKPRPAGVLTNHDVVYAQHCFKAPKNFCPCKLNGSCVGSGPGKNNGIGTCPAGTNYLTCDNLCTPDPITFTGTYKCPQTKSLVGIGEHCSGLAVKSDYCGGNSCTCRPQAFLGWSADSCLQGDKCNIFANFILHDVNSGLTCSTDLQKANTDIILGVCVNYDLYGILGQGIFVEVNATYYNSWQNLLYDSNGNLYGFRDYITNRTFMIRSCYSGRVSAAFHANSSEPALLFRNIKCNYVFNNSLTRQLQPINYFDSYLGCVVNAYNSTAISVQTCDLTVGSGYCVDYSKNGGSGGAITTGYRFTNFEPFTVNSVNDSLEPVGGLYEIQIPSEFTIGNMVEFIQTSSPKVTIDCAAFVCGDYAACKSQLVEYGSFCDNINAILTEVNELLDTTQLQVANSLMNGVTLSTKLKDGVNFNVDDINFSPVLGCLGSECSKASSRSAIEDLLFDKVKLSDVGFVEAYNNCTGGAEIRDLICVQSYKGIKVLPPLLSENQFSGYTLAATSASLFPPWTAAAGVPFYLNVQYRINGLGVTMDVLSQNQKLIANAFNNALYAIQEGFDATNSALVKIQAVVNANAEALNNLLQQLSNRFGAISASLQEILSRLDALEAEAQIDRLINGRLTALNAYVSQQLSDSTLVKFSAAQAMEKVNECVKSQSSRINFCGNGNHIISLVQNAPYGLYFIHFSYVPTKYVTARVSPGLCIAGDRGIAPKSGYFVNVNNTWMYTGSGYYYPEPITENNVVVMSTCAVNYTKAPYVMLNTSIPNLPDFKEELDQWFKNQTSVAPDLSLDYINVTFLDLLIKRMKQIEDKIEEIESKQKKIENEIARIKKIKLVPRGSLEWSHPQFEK

T2: CoV-NL63 Spike ectodomain (NL63-CoV, UniProt Q6Q1S2 19-1291)
T2 sequence: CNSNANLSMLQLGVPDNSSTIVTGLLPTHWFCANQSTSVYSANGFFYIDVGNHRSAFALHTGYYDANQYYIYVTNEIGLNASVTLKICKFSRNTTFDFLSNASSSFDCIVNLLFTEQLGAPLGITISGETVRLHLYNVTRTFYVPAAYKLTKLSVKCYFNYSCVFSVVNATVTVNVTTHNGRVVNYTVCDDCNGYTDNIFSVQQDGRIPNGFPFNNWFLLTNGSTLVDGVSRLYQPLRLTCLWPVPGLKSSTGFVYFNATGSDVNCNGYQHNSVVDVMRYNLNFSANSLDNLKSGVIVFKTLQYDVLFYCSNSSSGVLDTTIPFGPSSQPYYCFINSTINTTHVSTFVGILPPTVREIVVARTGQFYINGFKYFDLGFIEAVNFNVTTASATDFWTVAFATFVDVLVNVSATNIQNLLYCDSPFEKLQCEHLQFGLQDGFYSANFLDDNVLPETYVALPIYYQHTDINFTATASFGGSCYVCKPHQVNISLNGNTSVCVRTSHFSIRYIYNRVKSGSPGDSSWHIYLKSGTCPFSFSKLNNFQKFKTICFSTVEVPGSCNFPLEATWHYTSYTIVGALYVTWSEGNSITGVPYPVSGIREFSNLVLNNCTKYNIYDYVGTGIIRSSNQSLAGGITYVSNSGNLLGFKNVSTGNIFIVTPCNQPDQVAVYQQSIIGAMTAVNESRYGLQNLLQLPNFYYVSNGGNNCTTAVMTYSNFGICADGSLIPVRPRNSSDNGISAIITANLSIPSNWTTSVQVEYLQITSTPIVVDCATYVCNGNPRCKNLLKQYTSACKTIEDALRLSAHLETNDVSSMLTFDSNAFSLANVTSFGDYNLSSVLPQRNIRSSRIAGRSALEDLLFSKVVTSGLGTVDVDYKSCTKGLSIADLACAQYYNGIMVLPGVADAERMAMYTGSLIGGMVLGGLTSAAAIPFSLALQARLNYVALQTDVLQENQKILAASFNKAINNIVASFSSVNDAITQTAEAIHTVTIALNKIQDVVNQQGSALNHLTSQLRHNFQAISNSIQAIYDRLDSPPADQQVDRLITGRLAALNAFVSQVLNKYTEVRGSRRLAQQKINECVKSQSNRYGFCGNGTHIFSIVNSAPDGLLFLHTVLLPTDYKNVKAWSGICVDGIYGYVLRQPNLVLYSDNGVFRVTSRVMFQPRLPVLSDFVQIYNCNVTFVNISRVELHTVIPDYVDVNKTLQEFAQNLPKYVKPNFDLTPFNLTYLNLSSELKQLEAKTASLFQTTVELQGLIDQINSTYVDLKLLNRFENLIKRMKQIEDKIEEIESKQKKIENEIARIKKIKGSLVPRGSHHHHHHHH


Experiments:
[1] = target: SARS-CoV-2 spike, Gamma variant (P.1), on virus or pseudotyped particles (SARS-CoV-2); assay: cell-based or functional assay
[2] = target: SARS-CoV-2 spike, Beta variant (B.1.351), on virus or pseudotyped particles (SARS-CoV-2); assay: cell-based or functional assay
[3] = target: T1, CoV-OC43 Spike ectodomain; assay: ELISA, coated antigen; further: test concentration or dose not given here
[4] = target: T2, CoV-NL63 Spike ectodomain; assay: ELISA, coated antigen; further: test concentration or dose not given here
[5] = target: T1, CoV-OC43 Spike ectodomain; assay: ELISA, coated spike ectodomain
[6] = target: SARS-CoV-2 spike, Delta variant (B.1.617.2), on virus or pseudotyped particles (SARS-CoV-2); assay: cell-based or functional assay

Binder | Pseudoneutralization IC50 [1] [ng/mL] | Pseudoneutralization IC90 [1] [ng/mL] | S-Fuse neutralization IC50 [1] [ng/mL] | S-Fuse neutralization IC90 [1] [ng/mL] | Pseudoneutralization IC50 [2] [ng/mL] | Pseudoneutralization IC90 [2] [ng/mL] | S-Fuse neutralization IC50 [2] [ng/mL] | S-Fuse neutralization IC90 [2] [ng/mL] | ELISA OD [3] [OD] | ELISA OD [4] [OD] | binding result [5] | IC50, S-Fuse neutralisation [6] [ng/mL]
Cv2.1169 (recombinant human IgG1) (antibody, also called Cv2.1169 IgG) heavy: QVQLVQSGPEVKKPGTSVKVSCKASGFTFTTSAVQWVRQARGQRLEWIGWIVVGSGNTNYAQKFQERVTITRDMSTTTAYMELSSLRSEDTAVYYCAAPYCSGGTCLDGFDIWGQGTMVTVSSASTKGPSVFPLAPSSKSTSGGTAALGCLVKDYFPEPVTVSWNSGALTSGVHTFPAVLQSSGLYSLSSVVTVPSSSLGTQTYICNVNHKPSNTKVDKKVEPKSCDKTHTCPPCPAPELLGGPSVFLFPPKPKDTLMISRTPEVTCVVVDVSHEDPEVKFNWYVDGVEVHNAKTKPREEQYNSTYRVVSVLTVLHQDWLNGKEYKCKVSNKALPAPIEKTISKAKQPREPQVYTLPPSRDELTKNQVSLTCLVKGFYPSDIAVEWESNGQPENNYKTTPPVLDSDGSFFLYSKLTVDKSRWQQGNVFSCSVMHEALHNHYTQKSLSLSPGK light: not shown | 9.6 | 29.2 | 1.6 | 8.6 | 14.2 | 34.2 | 2.3 | 7.2 | 0.1 | 0.1 | no binding | 2.5
Cv2.3194 (recombinant human IgG1) (antibody, V domains shown) VH: EVQLVESGGGLIQPGGSLRLSCAASGITVTSNYMSWVRQAPGKGLEWVSVIYPGGSTFYADSVKGRFTISRDNSKNTLYLQMNSLRAEDTAVYYCARDLVVYGMDVWGQGTTVTVSS VL: EIVLTQSPGTLSLSPGERATLSCRASQSVSSSYLAWYQQKPGQAPRLLIYGASSRATGIPGRFSGSGSGTDFTLTISRLEPEDFAIYYCQQGVTFGGGTKVEIKR | 9.9 | 56.1 |  | 5.6 | 34.3 | 119 | 5.2 | 20 | 0.8 | 0.1 |  | 7.4
Cv2.5213 (recombinant human IgG1) (antibody, V domains shown) VH: EVQLVESGGGLIQPGGSLRLSCAASGFTVSSNYMSWVRQAPGKGLEWVSLIYSGGSTYYADSVKGRFTISRDNSKNTLYLQMNSLRAEDTAVYYCARDLNYYGMDVWGQGATVTVSS VL: DIQMTQSPSSLSASVGDRVTITCRASQGISSYLAWYQQKPGKAPKLLIYAASTLQSGVPSRFSGSGSGTDFTLTISSLQPEDFATYYCQQLDSYSPFTFGPGTKVDIKR |  |  |  |  |  |  |  |  | 0.7 | 0.1 |  | 
Cv2.3235 (recombinant human IgG1) (antibody, V domains shown) VH: EVQLVESGGGLIQPGGSLRLSCAASGFTVSRNYMSWVRQAPGKGLEWVSVIYSGGSTFYADSVKGRFTISRDNSKNTLYLQMNSLRAEDTAVYYCARDGDYYGMDVWGQGTTVTVSS VL: DIQMTQSPSFLSASVGDRVTITCRASQGISSFLAWYQQKPGKAPKLLIYGASTLQSGVTSRFSGSGSGTEFTLTISSLQPEDFATYYCQRLDSYPPITFGQGTRLEIKR |  |  |  |  |  |  |  |  | 0.3 | 0.2 | no binding | 
Cv2.1353 (recombinant human IgG1) (antibody, V domains shown) VH: EVQLVESGGGLVQPGGSLRLSCAASGVTVSSNYMNWVRQAPGKGLEWVSVIYSGGSTFYADSVKGRFIISRDNSKNTLYLQMNSLKTEDTAVYYCARDLGPMGFDIWGQGTMVTVSS VL: DIQMTQSPSFLSASVGDRVTITCRASQGISSYLAWYQQKPGKAPKLLIYAASTLQSGVPSRFSGSGSGTEFTLTISSLQPEDFATYYCQQLNSDPPVTFGPGTKVDIKR |  |  |  |  |  |  |  |  | 0.8 | 0.1 |  | 
